Test results as given in the RNAGym collection of RNA variant scans (doi:10.1093/molbev/msab373).

B1: Azoarcus group I ribozyme (parent)
chain: GUGCCUUGCGCCGGGAAACCACGCAAGGGAUGGUGUCAAAUUCGGCGAAACCUAAGCGCCCGCCCGGGCGUAUGGCAACGCCGAGCCAAGCUUCGGCGCCUGCGCCGAUGAAGGUGUAGAGACUAGACGGCACCCACCUAAGGCAAACGCUAUGGUGAAGGCAUAGUCCAGGGAGUGGCGAAAGUCACACAAACCGG

Variants of: B1
Experiment: reverse-splicing fitness (ratio to wild type); higher = more active; in vitro selection; Mg2+ level not given
Method in brief: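 An in vitro group I ribozyme library with randomized positions was T7-transcribed and gel-purified. In triplicate, 10 pmol RNA in EPPS pH 7.5 was reacted with 50 pmoles of a 30-nt RNA substrate for 1 h at 37 °C across several added MgCl2 levels (1–48 mM), then stopped with EDTA. Products were reverse transcribed from a substrate-complementary primer, PCR-amplified and sequenced (HiSeq 4000). Fitness is a variant's read proportion after selection over that before, normalised to wild type.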

First: GUGCCUUGCGCCGGGAAACCACGCAAGGGAUGGUGUCAAAUUCGGCGAAACCUAAGCGCCCGCCCGGGCGUAUGGCAACGCGGAGCCAAGCUUCGGCGCCUGCGCCGAUGCAGGUGUAGUGACUAGACGGCACCCACCUAAGGCCAACGGUAUGGUGAAGGCAUAGUCUAGGGAGUGGCGAAAGUCACACAAACCGG [C82G A111C A120U A145C C150G C169U]
Second: GUGCCUUGCGCCGGGAAACCACGCAAGGGAUGGUGUCAAAUUCGGCGAAACCUAAGCGCCCGCCCGGGCGUAUGGCAACGCGGAGCCAAGCUUCGGCGCCUGCGCCGAUGCAGGUGUAGUGACUAGACGGCACCCACCUAAGGCCAACGGUAUGGUGAAGGCAUAGUCAAGGGAGUGGCGAAAGUCACACAAACCGG [C82G A111C A120U A145C C150G C169A]
The reverse-splicing fitness of the first is higher: 0.00395 for the first, 0.00373 for the second.

Going from GUGCCUUGCGCCGGGAAACCACGCAAGGGAUGGUGUCAAAUUCGGCGAAACCUAAGCGCCCGCCCGGGCGUAUGGCAACGCGGAGCCAAGCUUCGGCGCCUGCGCCGAUGCAGGUGUAGUGACUAGACGGCACCCACCUAAGGCCAACGGUAUGGUGAAGGCAUAGUCGAGGGAGUGGCGAAAGUCACACAAACCGG [C82G A111C A120U A145C C150G C169G] to GUGCCUUGCGCCGGGAAACCACGCAAGGGAUGGUGUCAAAUUCGGCGAAACCUAAGCGCCCGCCCGGGCGUAUGGCAACGCGGAGCCAAGCUUCGGCGCCUGCGCCGAUGCAGGUGUAGUGACUAGACGGCACCCACCUAAGGCCAACGUUAUGGUGAAGGCAUAGUCCAGGGAGUGGCGAAAGUCACACAAACCGG [C82G A111C A120U A145C C150U], the reverse-splicing fitness rises from 0.0033 to 0.0115.

Going from GUGCCUUGCGCCGGGAAACCACGCAAGGGAUGGUGUCAAAUUCGGCGAAACCUAAGCGCCCGCCCGGGCGUAUGGCAACGCGGAGCCAAGCUUCGGCGCCUGCGCCGAUGCAGGUGUAGUGACUAGACGGCACCCACCUAAGGCCAACGGUAUGGUGAAGGCAUAGUCCAGGGAGUGGCGAAAGUCACACAAACCGG [C82G A111C A120U A145C C150G] to GUGCCUUGCGCCGGGAAACCACGCAAGGGAUGGUGUCAAAUUCGGCGAAACCUAAGCGCCCGCCCGGGCGUAUGGCAACGCGGAGCCAAGCUUCGGCGCCUGCGCCGAUGCAGGUGUAGUGACUAGACGGCACCCACCUAAGGCCAACGUUAUGGUGAAGGCAUAGUCGAGGGAGUGGCGAAAGUCACACAAACCGG [C82G A111C A120U A145C C150U C169G], the reverse-splicing fitness falls from 0.008 to 0.00299.

Compared with GUGCCUUGCGCCGGGAAACCACGCAAGGGAUGGUGUCAAAUUCGGCGAAACCUAAGCGCCCGCCCGGGCGUAUGGCAACGCGGAGCCAAGCUUCGGCGCCUGCGCCGAUGCAGGUGUAGUGACUAGACGGCACCCACCUAAGGCCAACGUUAUGGUGAAGGCAUAGUCAAGGGAGUGGCGAAAGUCACACAAACCGG [C82G A111C A120U A145C C150U C169A], GUGCCUUGCGCCGGGAAACCACGCAAGGGAUGGUGUCAAAUUCGGCGAAACCUAAGCGCCCGCCCGGGCGUAUGGCAACGCGGAGCCAAGCUUCGGCGCCUGCGCCGAUGCAGGUGUAGUGACUAGACGGCACCCACCUAAGGCCAACGUUAUGGUGAAGGCAUAGUCUAGGGAGUGGCGAAAGUCACACAAACCGG [C82G A111C A120U A145C C150U C169U] is lower in reverse-splicing fitness: 0.00304 for the first, 0.003 for the second.

Compared with GUGCCUUGCGCCGGGAAACCACGCAAGGGAUGGUGUCAAAUUCGGCGAAACCUAAGCGCCCGCCCGGGCGUAUGGCAACGCGGAGCCAAGCUUCGGCGCCUGCGCCGAUGCAGGUGUAGUGACUAGACGGCACCCACCUAAGGCCAACGGUAUGGUGAAGGCAUAGUCCAGGGAGAGGCGAAAGUCACACAAACCGG [C82G A111C A120U A145C C150G U176A], GUGCCUUGCGCCGGGAAACCACGCAAGGGAUGGUGUCAAAUUCGGCGAAACCUAAGCGCCCGCCCGGGCGUAUGGCAACGCGGAGCCAAGCUUCGGCGCCUGCGCCGAUGCAGGUGUAGUGACUAGACGGCACCCACCUAAGGCCAACGGUAUGGUGAAGGCAUAGUCCAGGGAGGGGCGAAAGUCACACAAACCGG [C82G A111C A120U A145C C150G U176G] is lower in reverse-splicing fitness: 0.00364 for the first, 0.00221 for the second.

Compared with GUGCCUUGCGCCGGGAAACCACGCAAGGGAUGGUGUCAAAUUCGGCGAAACCUAAGCGCCCGCCCGGGCGUAUGGCAACGCGGAGCCAAGCUUCGGCGCCUGCGCCGAUGCAGGUGUAGUGACUAGACGGCACCCACCUAAGGCCAACGGUAUGGUGAAGGCAUAGUCCAGGGAGCGGCGAAAGUCACACAAACCGG [C82G A111C A120U A145C C150G U176C], GUGCCUUGCGCCGGGAAACCACGCAAGGGAUGGUGUCAAAUUCGGCGAAACCUAAGCGCCCGCCCGGGCGUAUGGCAACGCGGAGCCAAGCUUCGGCGCCUGCGCCGAUGCAGGUGUAGUGACUAGACGGCACCCACCUAAGGCCAACGGUAUGGUGAAGGCAUAGUCUAGGGAGCGGCGAAAGUCACACAAACCGG [C82G A111C A120U A145C C150G C169U U176C] is lower in reverse-splicing fitness: 0.00457 for the first, 0.00324 for the second.

Compared with GUGCCUUGCGCCGGGAAACCACGCAAGGGAUGGUGUCAAAUUCGGCGAAACCUAAGCGCCCGCCCGGGCGUAUGGCAACGCGGAGCCAAGCUUCGGCGCCUGCGCCGAUGCAGGUGUAGUGACUAGACGGCACCCACCUAAGGCCAACGGUAUGGUGAAGGCAUAGUCUAGGGAGAGGCGAAAGUCACACAAACCGG [C82G A111C A120U A145C C150G C169U U176A], GUGCCUUGCGCCGGGAAACCACGCAAGGGAUGGUGUCAAAUUCGGCGAAACCUAAGCGCCCGCCCGGGCGUAUGGCAACGCGGAGCCAAGCUUCGGCGCCUGCGCCGAUGCAGGUGUAGUGACUAGACGGCACCCACCUAAGGCCAACGGUAUGGUGAAGGCAUAGUCUAGGGAGGGGCGAAAGUCACACAAACCGG [C82G A111C A120U A145C C150G C169U U176G] is lower in reverse-splicing fitness: 0.00358 for the first, 0.00222 for the second.

Variant GUGCCUUGCGCCGGGAAACCACGCAAGGGAUGGUGUCAAAUUCGGCGAAACCUAAGCGCCCGCCCGGGCGUAUGGCAACGCGGAGCCAAGCUUCGGCGCCUGCGCCGAUGCAGGUGUAGUGACUAGACGGCACCCACCUAAGGCCAACGUUAUGGUGAAGGCAUAGUCUAGGGAGAGGCGAAAGUCACACAAACCGG [C82G A111C A120U A145C C150U C169U U176A] has a reverse-splicing fitness of 0.00337.
